From CN115197321A (UNIV SICHUAN, dated 2022) come the findings set out here.

The target of assay [1] is CD25-hIgG1Fc(人CD25胞外域的C端融合人IgG1的Fc段) (human) (UniProt P01589). Kind of assay: ELISA, coated CD25-hIgG1Fc 1 μg/mL. For orientation: ELISA stands for enzyme-linked immunosorbent assay.
Assay [2] deals with T1, CD25-His(人CD25胞外域的C端融合6×His标签) (human, UniProt P01589 22-240).
T1 construct: extracellular domain; Made in-house; also called 人CD25-His
T1 sequence: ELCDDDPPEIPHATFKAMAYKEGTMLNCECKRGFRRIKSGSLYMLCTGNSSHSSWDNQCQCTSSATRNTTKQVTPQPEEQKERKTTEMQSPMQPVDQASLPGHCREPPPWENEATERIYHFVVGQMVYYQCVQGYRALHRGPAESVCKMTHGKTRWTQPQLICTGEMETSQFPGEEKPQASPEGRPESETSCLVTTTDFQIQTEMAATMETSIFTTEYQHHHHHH
Kind of assay: SPR (Biacore).

Assay [3] addresses T2, 人CD25 (on CD25-positive cells: SU-DHL-1, U937, NK-92, human PBMC) (human, UniProt P01589 22-272).
T2 construct: whole, on cells; Endogenous CD25 on human cells; also called IL-2Rα
T2 sequence (looked up): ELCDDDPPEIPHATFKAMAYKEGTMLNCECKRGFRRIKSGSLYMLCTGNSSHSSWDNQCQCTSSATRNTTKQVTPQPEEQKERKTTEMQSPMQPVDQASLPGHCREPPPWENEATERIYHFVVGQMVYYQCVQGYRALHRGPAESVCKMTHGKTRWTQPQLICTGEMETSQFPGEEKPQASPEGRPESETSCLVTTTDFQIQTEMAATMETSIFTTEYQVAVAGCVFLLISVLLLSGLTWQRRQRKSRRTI
Kind of assay: flow cytometry on SU-DHL-1 and U937 cells, Figure 8.

Assay [4] concerns the target T1, CD25-His(人CD25胞外域的C端融合6×His标签). Kind of assay: SPR (Biacore) binding kinetics, Figure 6. (In SPR one partner is held on a chip, and binding of the other changes the refractive index at the surface.)
The target of another assay is T3, 鼠CD25(R&D公司) (鼠 (mouse), UniProt P01590 22-236, limits assumed).
T3 construct: Bought protein
T3 sequence (looked up): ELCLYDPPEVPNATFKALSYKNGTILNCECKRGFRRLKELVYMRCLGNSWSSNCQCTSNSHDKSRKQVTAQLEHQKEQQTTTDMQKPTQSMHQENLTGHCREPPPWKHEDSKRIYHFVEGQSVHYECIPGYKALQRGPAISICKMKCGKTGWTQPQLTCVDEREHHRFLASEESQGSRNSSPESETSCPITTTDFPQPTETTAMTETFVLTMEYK
Kind of assay: ELISA, coated mouse CD25 50 ng/well, hybridoma supernatant.

The target in assay [5] is T1, CD25-His(人CD25胞外域的C端融合6×His标签). Kind of assay: SPR (Biacore). The source holds these as a separate data set.

Residue numbers refer to the chain shown, from its start. Names and notes keep the numbering of the source. Read-outs that look alike come from different tables or passages of the source.

Molecule 小鼠IgG (antibody) yielded an OD450 in assay [1] of less than 0.3 OD.

B1: 人源化抗体h7B7-15 (antibody, V domains shown)
VH: QVQLQESGPGLVKPSQTLSLTCAVYGYSITSDYAWNWIRQPPGKGLEWIGYINYSGSTSYNPSLKSRVTISVDTSKNQFSLKLSSVTAADTAVYYCARKGGFFDVWGQGTTVTVSS
VL: DIQMTQSPSSLSASVGDRVTITCSASQGISNYLNWYQQKPGKAPKLLIYYTSSLHSGVPSRFSGSGSGTDFTFTISSLQPEDIATYYCLQYSKLPWTFGGGTKVEIK
notes: Human IgG1κ; heavy chain 4 (IGHV4-34*09) with light chain 3 (IGKV1-33*01)
Take B1: in assay [2], binding was put at a Kd of 2.33 nM, the koff was determined as 0.000356 s⁻¹ and the kon is 153000 M⁻¹ s⁻¹.

B2: h7B7-15Y (antibody, V domains shown)
VH: B1 VH with N53Y
VL: B1 VL
notes: Mutant of h7B7-15 in the N of the NYS motif of VH-CDR2; human IgG1κ as the parent; also called h7B7突变体 N53Y
B2: the binding result in assay [2] is given as “no binding”.

B3: h7B7-15A (antibody, V domains shown)
VH: B1 VH with N53A
VL: B1 VL
notes: Mutant of h7B7-15 in the N of the NYS motif of VH-CDR2; human IgG1κ as the parent; also called h7B7突变体 N53A
Take B3: in assay [2], binding was characterised by a dissociation constant (Kd) of 8.55 nM, the koff is 0.00103 s⁻¹ and the kon came to 121000 M⁻¹ s⁻¹.

B4: h7B7-15S (antibody, V domains shown)
VH: B1 VH with N53S
VL: B1 VL
notes: N53S mutant of h7B7-15; human IgG1κ as the parent; also called h7B7突变体 N53S
Regarding B4, in assay [2], the Kd stood at 4.83 nM, the koff was determined as 0.000554 s⁻¹ and the kon came out at 115000 M⁻¹ s⁻¹.

B5: h7B7-15Q (antibody, V domains shown)
VH: B1 VH with N53Q
VL: B1 VL
notes: Mutant of h7B7-15 in the N of the NYS motif of VH-CDR2; human IgG1κ as the parent; also called h7B7突变体 N53Q
In assay [2], B5 displayed a dissociation constant (Kd) of 21.1 nM, a koff of 0.00502 s⁻¹ and a kon of 238000 M⁻¹ s⁻¹.

B6: 重组单克隆抗体7B7 (antibody, V domains shown)
VH: EVQLQESGPGLVKPSQSLSLTCTVTGYSITSDYAWNWIRQFPGNKLEWMGYINYSGSTSYNPSLKSRISITRDTSKNQFFLQLNSVTTEDTATYYCARKGGFFDVWGAGTTVTVSS
VL: DIQMTQTTSSLSASLGDRVTISCSASQGISNYLNWYQQKPDGTVKLLIYYTSSLHSGVPSRFSGSGSGTDYSLTISNLEPEDIATYYCLQYSKLPWTFGGGTKLEIK
notes: a human-mouse chimeric IgG1κ form was also made; also called 抗体7B7(来自B7)
On to B6, for which the binding result in assay [3] and in assay [4] was “binds” in each case.

B7: 杂交瘤抗体B7 (antibody, IgG1, V domains shown)
VH: B6 VH
VL: B6 VL
notes: Mouse hybridoma antibody, mIgG1; the tie to the hybridoma antibody rests on that statement
Take B7: the binding result in the assay with 鼠CD25(R&D公司) is “no binding”.

B8: 重组单克隆抗体F10-2 (antibody, V domains shown)
VH: QVQLKQSGPGLVQPSQSLSITCTVSGFSLTSYGVHWVRQSPGKGLEWLGVIWRGGSTDYNAAFMSRLSITKDNSKSQVFFKMNSLQAGDTAVYYCAKNERFYGFDYWGQGTTLTVSS
VL: DIVMTQAAFSNPVTLGTSASISCRSSKSLLHSNGITYLYWYLQKPGQSPQLLIYQMSNLASGVPDRFSSSGSGTDFTLRISRVEAEDVGVYYCAQNLELPTFGSGTKLEIK
notes: a human-mouse chimeric IgG1κ form was also made; also called 抗体F10-2(来自F10)
On to B8, for which the binding result in assay [3] and in assay [4] was “binds” in each case.

B9: hF10-2-3(BM4+BM3) (antibody, V domains shown)
VH: QVQLKQSGPGLVKPSDTLSLTCTVSGFSLTSYGVHWVRQPPGKGLEWLGVIWRGGSTDYNAAFMSRLSITKDNSKSQVSLKLSSVTAADTAVYYCAKNERFYGFDYWGQGTLVTVSS
VL: B8 VL with A7S, A8P, F9L, N11L, L15P, T17E, S18P, S104G, L108V
notes: Made as for h7B7 (human IgG1κ)
In assay [5], B9 yielded a Kd of 10.5 nM, a koff of 0.00333 s⁻¹ and a kon of 318000 M⁻¹ s⁻¹.

B10: 杂交瘤抗体F10 (antibody, IgG2a, V domains shown)
VH: B8 VH
VL: B8 VL
notes: Mouse hybridoma antibody, mIgG2a; the tie to the hybridoma antibody rests on that statement
For the molecule B10, the binding result in the assay with 鼠CD25(R&D公司) is on record as “no binding”.

B11: hF10-2-4(BM5+BM3) (antibody, V domains shown)
VH: B9 VH with Q6E, V37I, L48I
VL: B8 VL with A7S, A8P, F9L, N11L, L15P, T17E, S18P, S104G, L108V
notes: as for B9
In assay [5], B11 showed a Kd of 18.1 nM, a koff of 0.00126 s⁻¹ and an association rate constant (kon) of 69900 M⁻¹ s⁻¹.

B12: hF10-2-1(BM4+BM) (antibody, V domains shown)
VH: B9 VH
VL: B8 VL with A7S, A8P, F9L, N11L, L15P, T17E, S18P, R79K, S104G, L108V
notes: as for B9
Consider B12, for which the binding result in assay [5] is “no binding”.

B13: hF10-2-2(BM5+BM) (antibody, V domains shown)
VH: B9 VH with Q6E, V37I, L48I
VL: B8 VL with A7S, A8P, F9L, N11L, L15P, T17E, S18P, R79K, S104G, L108V
notes: as for B9
As to B13, the binding result in assay [5] is listed as “no binding”.

In general, Kd refers to the concentration at which binding is half-saturated. A high value points to a looser complex. A word on the koff: it is a measure of how fast the partners let go of each other. A lower koff goes with a long-lived complex. A word on the kon: it is the rate constant with which the complex forms. Higher therefore signals fast association.
